Target: T1, human urotensin II receptor (hUT), stably expressed in HEK 293 cells (human) (UniProt Q9UKP6)
T1 sequence: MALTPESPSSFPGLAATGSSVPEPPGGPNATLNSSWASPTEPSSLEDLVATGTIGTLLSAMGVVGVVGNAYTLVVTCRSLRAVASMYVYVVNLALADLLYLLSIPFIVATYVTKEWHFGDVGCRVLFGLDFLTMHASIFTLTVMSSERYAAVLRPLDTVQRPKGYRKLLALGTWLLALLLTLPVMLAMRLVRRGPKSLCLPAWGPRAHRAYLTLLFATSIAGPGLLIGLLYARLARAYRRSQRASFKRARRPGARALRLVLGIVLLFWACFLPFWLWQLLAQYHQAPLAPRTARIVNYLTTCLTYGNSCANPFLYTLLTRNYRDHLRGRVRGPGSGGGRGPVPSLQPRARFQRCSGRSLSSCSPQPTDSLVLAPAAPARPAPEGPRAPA

human urotensin II (ligand)
Emax of β-arrestin 2 conformational change (BRET biosensor), HEK 293-hUT cells: 100%

— doi:10.1101/2020.11.23.394270
